Source: article PMC4538830, “CTNNBL1 facilitates the association of CWC15 with CDC5L and is required to maintain the abundance of the Prp19 spliceosomal complex” (Nucleic Acids Research, 2015)

What was measured:
CWC15[80–229] = target: T1, CWC15[80–229] (human, UniProt Q9P013 80-229); test: SEC-MALS; mixture of purified His-CTNNBL1[77–563], CDC5L[1–195] and CWC15[80–229]; conditions: both partners purified
T1 construct: Tag cleaved off by HRV 3C protease for gel filtration, crosslinking and HDX; source: E. coli BL21 Rosetta (DE3)pLysS, purified (Glutathione-Sepharose 4B, HRV 3C cleavage, Resource Q)
T1 sequence (looked up): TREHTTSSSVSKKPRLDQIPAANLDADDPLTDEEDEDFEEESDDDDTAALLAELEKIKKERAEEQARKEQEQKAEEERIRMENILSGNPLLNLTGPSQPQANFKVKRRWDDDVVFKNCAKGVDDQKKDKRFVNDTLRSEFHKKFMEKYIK

[1] = target: the molecule itself; test: SEC-MALS; CTNNBL1 (full length or [77–563]) alone; also in high salt buffer (0.5 M NaCl) or with CWC15[80–229] added; Supplementary Figure S7
[2] = target: T2, full-length recombinant His tagged CTNNBL1 (human, UniProt Q8WYA6 1-563); test: pull-down; His-CTNNBL1 (full length or [77–563]) as bait on Ni-NTA resin; 10–20 μg of each purified protein in pull down buffer, 1 h at 4°C; eluates on SDS-PAGE, Instant Blue; conditions: both partners purified
T2 construct: Homotrimer when alone in solution by SEC-MALS (186 kDa); also called His-CTNNBL1; full-length CTNNBL1; source: E. coli BL21 Rosetta (DE3)pLysS, purified (Ni-NTA, Resource Q)
T2 sequence (looked up): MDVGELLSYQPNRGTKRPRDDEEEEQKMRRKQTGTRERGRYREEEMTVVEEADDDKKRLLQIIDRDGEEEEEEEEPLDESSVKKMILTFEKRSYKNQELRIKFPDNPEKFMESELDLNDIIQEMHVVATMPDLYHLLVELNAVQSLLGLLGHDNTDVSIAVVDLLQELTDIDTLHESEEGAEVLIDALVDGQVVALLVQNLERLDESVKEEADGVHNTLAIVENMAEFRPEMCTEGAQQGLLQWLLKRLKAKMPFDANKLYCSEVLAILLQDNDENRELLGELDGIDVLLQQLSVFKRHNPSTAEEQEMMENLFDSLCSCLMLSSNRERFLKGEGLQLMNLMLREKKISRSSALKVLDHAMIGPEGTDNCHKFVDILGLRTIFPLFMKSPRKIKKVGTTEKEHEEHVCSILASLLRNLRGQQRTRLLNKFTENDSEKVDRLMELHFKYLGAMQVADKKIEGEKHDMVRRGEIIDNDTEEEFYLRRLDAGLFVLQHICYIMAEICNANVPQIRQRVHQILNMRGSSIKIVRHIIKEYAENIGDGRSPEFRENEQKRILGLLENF

B1: CDC5L[1–195] (domain or fragment, human, UniProt Q99459 1-195, looked up)
chain: MPRIMIKGGVWRNTEDEILKAAVMKYGKNQWSRIASLLHRKSAKQCKARWYEWLDPSIKKTEWSREEEEKLLHLAKLMPTQWRTIAPIIGRTAAQCLEHYEFLLDKAAQRDNEEETTDDPRKLKPGEIDPNPETKPARPDPIDMDEDELEMLSEARARLANTQGKKAKRKAREKQLEEARRLAALQKRRELRAAG
notes: Tag cleaved off by TEV protease for gel filtration, crosslinking and HDX; source: E. coli BL21 Rosetta (DE3)pLysS, purified (amylose resin, TEV cleavage, Resource S)
- stoichiometry N (CWC15[80–229]): 1

B2: His-CTNNBL1[77–563] (domain or fragment, human, UniProt Q8WYA6 77-563, looked up)
chain: LDESSVKKMILTFEKRSYKNQELRIKFPDNPEKFMESELDLNDIIQEMHVVATMPDLYHLLVELNAVQSLLGLLGHDNTDVSIAVVDLLQELTDIDTLHESEEGAEVLIDALVDGQVVALLVQNLERLDESVKEEADGVHNTLAIVENMAEFRPEMCTEGAQQGLLQWLLKRLKAKMPFDANKLYCSEVLAILLQDNDENRELLGELDGIDVLLQQLSVFKRHNPSTAEEQEMMENLFDSLCSCLMLSSNRERFLKGEGLQLMNLMLREKKISRSSALKVLDHAMIGPEGTDNCHKFVDILGLRTIFPLFMKSPRKIKKVGTTEKEHEEHVCSILASLLRNLRGQQRTRLLNKFTENDSEKVDRLMELHFKYLGAMQVADKKIEGEKHDMVRRGEIIDNDTEEEFYLRRLDAGLFVLQHICYIMAEICNANVPQIRQRVHQILNMRGSSIKIVRHIIKEYAENIGDGRSPEFRENEQKRILGLLENF
notes: Homotrimer when alone in solution by SEC-MALS (165 kDa); also called N-terminal truncation mutant of CTNNBL1; source: E. coli BL21 Rosetta (DE3)pLysS, purified (Ni-NTA, Resource Q)
- stoichiometry N [1]: 3

B3: full-length GST-CWC15 (natural protein, human, UniProt Q9P013 1-229, looked up)
chain: MTTAARPTFEPARGGRGKGEGDLSQLSKQYSSRDLPSHTKIKYRQTTQDAPEEVRNRDFRRELEERERAAAREKNRDRPTREHTTSSSVSKKPRLDQIPAANLDADDPLTDEEDEDFEEESDDDDTAALLAELEKIKKERAEEQARKEQEQKAEEERIRMENILSGNPLLNLTGPSQPQANFKVKRRWDDDVVFKNCAKGVDDQKKDKRFVNDTLRSEFHKKFMEKYIK
notes: source: E. coli BL21 Rosetta (DE3)pLysS, purified (Glutathione-Sepharose 4B)
- binding result [2]: binds
